Laboratory results: paper PMC11574045, “A cofactor-induced repressive type of transcription factor condensation can be induced by synthetic peptides to suppress tumorigenesis” (The EMBO Journal, 2024)

B1: FOSL1 (protein, UniProt P15407 1-271, looked up)
Fos-related antigen 1: MFRDFGEPGPSSGNGGGYGGPAQPPAAAQAAQQKFHLVPSINTMSGSQELQWMVQPHFLGPSSYPRPLTYPQYSPPQPRPGVIRALGPPPGVRRRPCEQISPEEEERRRVRRERNKLAAAKCRNRRKELTDFLQAETDKLEDEKSGLQREIEELQKQKERLELVLEAHRPICKIPEGAKEGDTGSTSGTSSPPAPCRPVPCISLSPGPVLEPEALHTPTLMTTPSLTPFTPSLVFTYPSTPEPCASAHRKSSSSSGDPSSDPLGSPTLLAL
B2: ETV2 (protein, UniProt P41163 1-335, looked up)
ETS translocation variant 2: MDLWNWDEASLQEVPPGDKLTGLGAEFGFYFPEVALQEDTPITPMNVEGCWKGFPELDWNPALPHEDVPFQAEPVAHPLPWSRDWTDLGCNTSDPWSCASQTPGPAPPGTSPSPFVGFEGATGQNPATSAGGVPSWSHPPAAWSTTSWDCSVGPSGATYWDNGLGGEAHEDYKMSWGGSAGSDYTTTWNTGLQDCSIPFEGHQSPAFTTPSKSNKQSDRATLTRYSKTNHRGPIQLWQFLLELLHDGARSSCIRWTGNSREFQLCDPKEVARLWGERKRKPGMNYEKLSRGLRYYYRRDIVLKSGGRKYTYRFGGRVPVLAYQDDMGHLPGAEGQ
B3: ETV7 (protein, UniProt Q9Y603 1-341, looked up)
Transcription factor ETV7: MQEGELAISPISPVAAMPPLGTHVQARCEAQINLLGEGGICKLPGRLRIQPALWSREDVLHWLRWAEQEYSLPCTAEHGFEMNGRALCILTKDDFRHRAPSSGDVLYELLQYIKTQRRALVCGPFFGGIFRLKTPTQHSPVPPEEVTGPSQMDTRRGHLLQPPDPGLTSNFGHLDDPGLARWTPGKEESLNLCHCAELGCRTQGVCSFPAMPQAPIDGRIADCRLLWDYVYQLLLDTRYEPYIKWEDKDAKIFRVVDPNGLARLWGNHKNRVNMTYEKMSRALRHYYKLNIIKKEPGQKLLFRFLKTPGKMVQDKHSHLEPLESQEQDRIEFKDKRPEISP
B4: FERD3L (protein, UniProt Q96RJ6 1-166, looked up)
Fer3-like protein: MAAYPESCVDTTVLDFVADLSLASPRRPLLCDFAPGVSLGDPALALREGRPRRMARFEEGDPEEEECEVDQGDGEEEEEEERGRGVSLLGRPKRKRVITYAQRQAANIRERKRMFNLNEAFDQLRRKVPTFAYEKRLSRIETLRLAIVYISFMTELLESCEKKESG
B5: FHL2 (protein, UniProt Q14192 1-279, looked up)
Four and a half LIM domains …: MTERFDCHHCNESLFGKKYILREESPYCVVCFETLFANTCEECGKPIGCDCKDLSYKDRHWHEACFHCSQCRNSLVDKPFAAKEDQLLCTDCYSNEYSSKCQECKKTIMPGTRKMEYKGSSWHETCFICHRCQQPIGTKSFIPKDNQNFCVPCYEKQHAMQCVQCKKPITTGGVTYREQPWHKECFVCTACRKQLSGQRFTARDDFAYCLNCFCDLYAKKCAGCTNPISGLGGTKYISFEERQWHNDCFNCKKCSLSLVGRGFLTERDDILCPDCGKDI
B6: EZH1 (protein, UniProt Q92800 1-747, looked up)
Histone-lysine …: MEIPNPPTSKCITYWKRKVKSEYMRLRQLKRLQANMGAKALYVANFAKVQEKTQILNEEWKKLRVQPVQSMKPVSGHPFLKKCTIESIFPGFASQHMLMRSLNTVALVPIMYSWSPLQQNFMVEDETVLCNIPYMGDEVKEEDETFIEELINNYDGKVHGEEEMIPGSVLISDAVFLELVDALNQYSDEEEEGHNDTSDGKQDDSKEDLPVTRKRKRHAIEGNKKSSKKQFPNDMIFSAIASMFPENGVPDDMKERYRELTEMSDPNALPPQCTPNIDGPNAKSVQREQSLHSFHTLFCRRCFKYDCFLHPFHATPNVYKRKNKEIKIEPEPCGTDCFLLLEGAKEYAMLHNPRSKCSGRRRRRHHIVSASCSNASASAVAETKEGDSDRDTGNDWASSSSEANSRCQTPTKQKASPAPPQLCVVEAPSEPVEWTGAEESLFRVFHGTYFNNFCSIARLLGTKTCKQVFQFAVKESLILKLPTDELMNPSQKKKRKHRLWAAHCRKIQLKKDNSSTQVYNYQPCDHPDRPCDSTCPCIMTQNFCEKFCQCNPDCQNRFPGCRCKTQCNTKQCPCYLAVRECDPDLCLTCGASEHWDCKVVSCKNCSIQRGLKKHLLLAPSDVAGWGTFIKESVQKNEFISEYCGELISQDEADRRGKVYDKYMSSFLFNLNNDFVVDATRKGNKIRFANHSVNPNCYAKVVMVNGDHRIGIFAKRAIQAGEELFFDYRYSQADALKYVGIERETDVL
B7: ETV1 (protein, UniProt P50549 1-477, looked up)
ETS translocation variant 1: MDGFYDQQVPYMVTNSQRGRNCNEKPTNVRKRKFINRDLAHDSEELFQDLSQLQETWLAEAQVPDNDEQFVPDYQAESLAFHGLPLKIKKEPHSPCSEISSACSQEQPFKFSYGEKCLYNVSAYDQKPQVGMRPSNPPTPSSTPVSPLHHASPNSTHTPKPDRAFPAHLPPSQSIPDSSYPMDHRFRRQLSEPCNSFPPLPTMPREGRPMYQRQMSEPNIPFPPQGFKQEYHDPVYEHNTMVGSAASQSFPPPLMIKQEPRDFAYDSEVPSCHSIYMRQEGFLAHPSRTEGCMFEKGPRQFYDDTCVVPEKFDGDIKQEPGMYREGPTYQRRGSLQLWQFLVALLDDPSNSHFIAWTGRGMEFKLIEPEEVARRWGIQKNRPAMNYDKLSRSLRYYYEKGIMQKVAGERYVYKFVCDPEALFSMAFPDNQRPLLKTDMERHINEEDTVPLSHFDESMAYMPEGGCCNPHPYNEGYVY
B8: FOSB (protein, UniProt P53539 1-338, looked up)
Protein FosB: MFQAFPGDYDSGSRCSSSPSAESQYLSSVDSFGSPPTAAASQECAGLGEMPGSFVPTVTAITTSQDLQWLVQPTLISSMAQSQGQPLASQPPVVDPYDMPGTSYSTPGMSGYSSGGASGSGGPSTSGTTSGPGPARPARARPRRPREETLTPEEEEKRRVRRERNKLAAAKCRNRRRELTDRLQAETDQLEEEKAELESEIAELQKEKERLEFVLVAHKPGCKIPYEEGPGPGPLAEVRDLPGSAPAKEDGFSWLLPPPPPPPLPFQTSQDAPPNLTASLFTHSEVQVLGDPFPVVNPSYTSSFVLTCPEVSAFAGAQRTSGSDQPSDPLNSPSLLAL
B9: AFF3 (protein, UniProt P51826 1-1226, looked up)
AF4/FMR2 family member 3: MDSFDLALLQEWDLESLCVYEPDRNALRRKERERRNQETQQDDGTFNSSYSLFSEPYKTNKGDELSNRIQNTLGNYDEMKDFLTDRSNQSHLVGVPKPGVPQTPVNKIDEHFVADSRAQNQPSSICSTTTSTPAAVPVQQSKRGTMGWQKAGHPPSDGQQRATQQGSLRTLLGDGVGRQQPRAKQVCNVEVGLQTQERPPAMAAKHSSSGHCVQNFPPSLASKPSLVQQKPTAYVRPMDGQDQAPDESPKLKSSSETSVHCTSYRGVPASKPEPARAKAKLSKFSIPKQGEESRSGETNSCVEEIIREMTWLPPLSAIQAPGKVEPTKFPFPNKDSQLVSSGHNNPKKGDAEPESPDNGTSNTSMLEDDLKLSSDEEENEQQAAQRTALRALSDSAVVQQPNCRTSVPSSKGSSSSSSSGSSSSSSDSESSSGSDSETESSSSESEGSKPPHFSSPEAEPASSNKWQLDKWLNKVNPHKPPILIQNESHGSESNQYYNPVKEDVQDCGKVPDVCQPSLREKEIKSTCKEEQRPRTANKAPGSKGVKQKSPPAAVAVAVSAAAPPPAVPCAPAENAPAPARRSAGKKPTRRTERTSAGDGANCHRPEEPAAADALGTSVVVPPEPTKTRPCGNNRASHRKELRSSVTCEKRRTRGLSRIVPKSKEFIETESSSSSSSSDSDLESEQEEYPLSKAQTVAASASSGNDQRLKEAAANGGSGPRAPVGSINARTTSDIAKELEEQFYTLVPFGRNELLSPLKDSDEIRSLWVKIDLTLLSRIPEHLPQEPGVLSAPATKDSESAPPSHTSDTPAEKALPKSKRKRKCDNEDDYREIKKSQGEKDSSSRLATSTSNTLSANHCNMNINSVAIPINKNEKMLRSPISPLSDASKHKYTSEDLTSSSRPNGNSLFTSASSSKKPKADSQLQPHGGDLTKAAHNNSENIPLHKSRPQTKPWSPGSNGHRDCKRQKLVFDDMPRSADYFMQEAKRMKHKADAMVEKFGKALNYAEAALSFIECGNAMEQGPMESKSPYTMYSETVELIRYAMRLKTHSGPNATPEDKQLAALCYRCLALLYWRMFRLKRDHAVKYSKALIDYFKNSSKAAQAPSPWGASGKSTGTPSPMSPNPSPASSVGSQGSLSNASALSPSTIVSIPQRIHQMAANHVSITNSILHSYDYWEMADNLAKENREFFNDLDLLMGPVTLHSSMEHLVQYSQQGLHWLRNSAHLS
B10: FLI1 (protein, UniProt Q01543 1-452, looked up)
Friend leukemia integration 1 …: MDGTIKEALSVVSDDQSLFDSAYGAAAHLPKADMTASGSPDYGQPHKINPLPPQQEWINQPVRVNVKREYDHMNGSRESPVDCSVSKCSKLVGGGESNPMNYNSYMDEKNGPPPPNMTTNERRVIVPADPTLWTQEHVRQWLEWAIKEYSLMEIDTSFFQNMDGKELCKMNKEDFLRATTLYNTEVLLSHLSYLRESSLLAYNTTSHTDQSSRLSVKEDPSYDSVRRGAWGNNMNSGLNKSPPLGGAQTISKNTEQRPQPDPYQILGPTSSRLANPGSGQIQLWQFLLELLSDSANASCITWEGTNGEFKMTDPDEVARRWGERKSKPNMNYDKLSRALRYYYDKNIMTKVHGKRYAYKFDFHGIAQALQPHPTESSMYKYPSDISYMPSYHAHQQKVNFVPPHPSSMPVTSSSFFGAASQYWTSPTGGIYPNPNVPRHPNTHVPSHLGSYY
B11: ESRRA (protein, UniProt P11474 1-423, looked up)
Steroid hormone receptor ERR1: MSSQVVGIEPLYIKAEPASPDSPKGSSETETEPPVALAPGPAPTRCLPGHKEEEDGEGAGPGEQGGGKLVLSSLPKRLCLVCGDVASGYHYGVASCEACKAFFKRTIQGSIEYSCPASNECEITKRRRKACQACRFTKCLRVGMLKEGVRLDRVRGGRQKYKRRPEVDPLPFPGPFPAGPLAVAGGPRKTAAPVNALVSHLLVVEPEKLYAMPDPAGPDGHLPAVATLCDLFDREIVVTISWAKSIPGFSSLSLSDQMSVLQSVWMEVLVLGVAQRSLPLQDELAFAEDLVLDEEGARAAGLGELGAALLQLVRRLQALRLEREEYVLLKALALANSDSVHIEDAEAVEQLREALHEALLEYEAGRAGPGGGAERRRAGRLLLTLPLLRQTAGKVLAHFYGVKLEGKVPMHKLFLEMLEAMMD

System: HEK293FT cells transfected with TF library
Assay: Screening of TF condensates based on fluorescent puncta
Type: cell-based
Conditions: Figure 1B numerical data; TF library screen, one value per transcriptional factor
Procedure: TF plasmids were automatically added to black-walled 384-well plates at 80 ng per well to reach a final concentration of 1.6 μg/ml. Polyethylenimine (PEI, Sigma) was then added to the plasmid-loaded plates at 240 ng per well (4.8 μg/ml). Subsequently, HEK293FT cells were seeded into the plate at 2000 cells per well. After 60 h, cells were cultured in medium with or without glucose for 12 h, and then fixed with 4% paraformaldehyde (PFA) at room temperature for 30 min. After three washes with PBS, fixed cells were permeabilized with 0.05% Triton X-100 for 15 min. Thereafter, cells were blocked with 5% BSA for 1 h, and then incubated overnight with anti-Flag (Sigma F3165, 1:200) and anti-GAL4 (Abbkine ABP57232, 1:200) primary antibodies at 4 °C. The cells were then gently washed with PBS, followed by being incubated with Alexa Fluor Plus 488 goat anti-mouse IgG secondary antibody (Thermo A32723, 1:400) or Alexa Fluor Plus 488 goat anti-rabbit IgG secondary antibody (Thermo A32731, 1:400) for 1 h. The plates were kept at 4 °C in the dark before being analyzed using an Opera System (Perkin Elmer). Fifty random fields per well were scanned and analyzed using the Columbus Plus Image Data Storage and Analysis System (Perkin Elmer).

| Molecule | Z score of condensed fraction |
| --- | --- |
| B1 | -0.3444 |
| B2 | 0.6041 |
| B3 | -0.026 |
| B4 | 0.6489 |
| B5 | 0.8678 |
| B6 | -2.133 |
| B7 | -0.2404 |
| B8 | 1.202 |
| B9 | -0.8104 |
| B10 | 0.3939 |
| B11 | 0.7125 |
